Patent US11905525B2, “Reduction of elimination of immune responses to non-intravenous, e.g., subcutaneously administered therapeutic proteins” (ModernaTX, Inc., priority 2017, dated 2024)

System: accelerated blood clearance (ABC)
Assay: Accelerated blood clearance (ABC) upon subsequent administration of LNP with a B cell targeting agent
Type: in vivo
Settings: combination with the LNP

“Rituximab: monoclonal antibody against the protein CD20” was tested, and the “ABC upon subsequent administration of LNP” value was “significantly reduced ABC”.
